From patent publication US20240117454 come the findings set out here.

In data set [1] the target is T1, Bovine neck ligament-derived elastin (SIGMA, E1625), P04985.
T1 chain: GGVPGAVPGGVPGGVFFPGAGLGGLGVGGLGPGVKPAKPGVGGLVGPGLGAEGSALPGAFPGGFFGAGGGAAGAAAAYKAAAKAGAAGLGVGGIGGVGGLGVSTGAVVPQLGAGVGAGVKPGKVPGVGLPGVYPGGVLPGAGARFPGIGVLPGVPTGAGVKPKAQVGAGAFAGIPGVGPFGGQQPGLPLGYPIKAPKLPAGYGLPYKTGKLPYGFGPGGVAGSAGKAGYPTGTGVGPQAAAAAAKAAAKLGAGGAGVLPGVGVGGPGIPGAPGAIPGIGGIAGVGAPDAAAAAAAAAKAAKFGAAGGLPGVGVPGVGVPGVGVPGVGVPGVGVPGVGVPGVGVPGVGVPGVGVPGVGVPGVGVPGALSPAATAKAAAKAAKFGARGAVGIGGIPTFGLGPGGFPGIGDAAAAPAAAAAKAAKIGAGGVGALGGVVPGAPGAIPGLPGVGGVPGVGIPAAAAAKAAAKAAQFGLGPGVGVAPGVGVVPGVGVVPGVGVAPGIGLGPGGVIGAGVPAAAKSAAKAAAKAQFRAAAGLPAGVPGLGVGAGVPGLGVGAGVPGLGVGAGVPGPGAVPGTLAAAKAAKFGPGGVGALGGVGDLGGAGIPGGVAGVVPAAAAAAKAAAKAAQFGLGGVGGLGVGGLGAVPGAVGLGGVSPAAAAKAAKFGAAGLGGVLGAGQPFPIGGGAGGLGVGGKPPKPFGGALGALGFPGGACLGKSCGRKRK

Data set [2] concerns the target bovine Achilles tendon-derived collagen (SIGMA, C9879).

B1: beta-lytic metallopeptidase (BLP) (protein)
chain: SAQGHGLSGEDLVYSYDEMFDFDIDAYLAKHAPHLHKHSEEISHWAGYSGISPKVLIALMEQQSGAVSAKRATNRPFGKLARADGFGAQTREVALALRESLYERDPDGAKGPVTLARANPLQALFERSGDNEPAAALRGDGEFQLVYGRLFNEPRQAKAASDRFAKAGPDVQPLSPNGL
In the case of B1, the “elastin degrading activity (amount of peptides liberated, relative value to savinase)” value in data set [1] is “BLP was equivalent in elastin degrading activity to savinase”. In addition, in data set [2], the “collagen degrading activity (amount of peptides liberated, relative value to savinase)” value is “had significantly lower collagen degrading activity as compared to savinase”.

B2: BLP homologue derived from Lysobacter gummosus (LgBLP) (protein)
chain: AERGLSGQDLVYSYDEMFDFDIDAYLAKNAPHLSRHAESISHWAGYSGISPKVLIALMEQQSGAITRKHAAADAAKRPFGALAKAKDFNGQTREVAQALREALYENDGPDAKGAVTVARANPLQALFERAGASQASAKLSGDGEFQLVYGRLFNEPRQAQAPSARFAKAGPDVQPLSP
Consider B2, for which, in data set [1], the “elastin degrading activity (amount of peptides liberated, relative value to savinase)” value was “LgBLP had lower elastin degrading activity as compared to savinase”.
